From patent US20140271457A1 (AbbVie / Abbott, published 2014)
Positions count from the first letter of the chain named.

B1: DVD2719 (bispecific antibody, IgG1)
VH: EVQLVESGGGLVQPGGSLRLSCAASGFSLTNNNVNWVRQAPGKGLEWVGGVWAGGATDYNSALKSRFTISRDNSKNTAYLQMNSLRAEDTAVYYCARDGGYSSSTLYAMDAWGQGTLVTVSSASTKGPEVQLVESGGGLVQPGGSLRLSCAASGFTFSNYGVTWVRQAPGKGLEWVSMIWADGSTHYASSVKGRFTISRDNSKNTLYLQMNSLRAEDTAVYYCAREWQHGPVAYWGQGTLVTVSS
VL: DIQMTQSPSSLSASVGDRVTITCRASEDIYNALAWYQQKPGKAPKLLIYNTDTLHTGVPSRFSGSGSGTDYTLTISSLQPEDFATYFCQHYFHYPRTFGQGTKVEIKRTVAAPDIQMTQSPSSLSASVGDRVTITCRASQLVSSAVAWYQQKPGKAPKLLIYWASARHTGVPSRFSGSGSGTDFTLTISSLQPEDFATYYCQQHYKTPFTFGQGTKLEIKR
B2: DVD2722 (bispecific antibody, IgG1)
VH: EVQLVESGGGLVQPGGSLRLSCAASGFSLTNNNVNWVRQAPGKGLEWVGGVWAGGATDYNSALKSRFTISRDNSKNTAYLQMNSLRAEDTAVYYCARDGGYSSSTLYAMDAWGQGTLVTVSSASTKGPSVFPLAPEVQLVESGGGLVQPGGSLRLSCAASGFTFSNYGVTWVRQAPGKGLEWVSMIWADGSTHYASSVKGRFTISRDNSKNTLYLQMNSLRAEDTAVYYCAREWQHGPVAYWGQGTLVTVSS
VL: B1 VL
B3: DVD2769 (bispecific antibody, IgG1)
VH: B1 VH with T163E, M178G, S189D, S190T, G193S
VL: B1 VL with R137K, A166T, R167L, K206R
B4: DVD2721 (bispecific antibody, IgG1)
VH: B1 VH
VL: DIQMTQSPSSLSASVGDRVTITCRASEDIYNALAWYQQKPGKAPKLLIYNTDTLHTGVPSRFSGSGSGTDYTLTISSLQPEDFATYFCQHYFHYPRTFGQGTKVEIKRTVAAPSVFIFPPDIQMTQSPSSLSASVGDRVTITCRASQLVSSAVAWYQQKPGKAPKLLIYWASARHTGVPSRFSGSGSGTDFTLTISSLQPEDFATYYCQQHYKTPFTFGQGTKLEIKR
B5: DVD2771 (bispecific antibody, IgG1)
VH: B1 VH with T163E, M178G, S189D, S190T, G193S
VL: B4 VL with R144K, A173T, R174L, K213R
B6: DVD2718 (bispecific antibody, IgG1)
VH: EVQLVESGGGLVQPGGSLRLSCAASGFSLTNNNVNWVRQAPGKGLEWVGGVWAGGATDYNSALKSRFTISRDNSKNTAYLQMNSLRAEDTAVYYCARDGGYSSSTLYAMDAWGQGTLVTVSSGGGGSGGGGSEVQLVESGGGLVQPGGSLRLSCAASGFTFSNYGVTWVRQAPGKGLEWVSMIWADGSTHYASSVKGRFTISRDNSKNTLYLQMNSLRAEDTAVYYCAREWQHGPVAYWGQGTLVTVSS
VL: DIQMTQSPSSLSASVGDRVTITCRASEDIYNALAWYQQKPGKAPKLLIYNTDTLHTGVPSRFSGSGSGTDYTLTISSLQPEDFATYFCQHYFHYPRTFGQGTKVEIKRGGSGGGGSGDIQMTQSPSSLSASVGDRVTITCRASQLVSSAVAWYQQKPGKAPKLLIYWASARHTGVPSRFSGSGSGTDFTLTISSLQPEDFATYYCQQHYKTPFTFGQGTKLEIKR
B7: DVD2768 (bispecific antibody, IgG1)
VH: B6 VH with T167E, M182G, S193D, S194T, G197S
VL: B6 VL with R141K, A170T, R171L, K210R
B8: DVD2763 (bispecific antibody, IgG1)
VH: EVQLVESGGGLVQPGGSLRLSCAASGFTFSNYGVEWVRQAPGKGLEWVSGIWADGSTHYADTVKSRFTISRDNSKNTLYLQMNSLRAEDTAVYYCAREWQHGPVAYWGQGTLVTVSSGGGGSGGGGSEVQLVESGGGLVQPGGSLRLSCAASGFSLTNNNVNWVRQAPGKGLEWVGGVWAGGATDYNSALKSRFTISRDNSKNTAYLQMNSLRAEDTAVYYCARDGGYSSSTLYAMDAWGQGTLVTVSS
VL: DIQMTQSPSSLSASVGDRVTITCKASQLVSSAVAWYQQKPGKAPKLLIYWASTLHTGVPSRFSGSGSGTDFTLTISSLQPEDFATYYCQQHYRTPFTFGQGTKLEIKRGGSGGGGSGDIQMTQSPSSLSASVGDRVTITCRASEDIYNALAWYQQKPGKAPKLLIYNTDTLHTGVPSRFSGSGSGTDYTLTISSLQPEDFATYFCQHYFHYPRTFGQGTKVEIKR
B9: DVD2717 (bispecific antibody, IgG1)
VH: EVQLVESGGGLVQPGGSLRLSCAASGFTFSNYGVTWVRQAPGKGLEWVSMIWADGSTHYASSVKGRFTISRDNSKNTLYLQMNSLRAEDTAVYYCAREWQHGPVAYWGQGTLVTVSSASTKGPSVFPLAPEVQLVESGGGLVQPGGSLRLSCAASGFSLTNNNVNWVRQAPGKGLEWVGGVWAGGATDYNSALKSRFTISRDNSKNTAYLQMNSLRAEDTAVYYCARDGGYSSSTLYAMDAWGQGTLVTVSS
VL: DIQMTQSPSSLSASVGDRVTITCRASQLVSSAVAWYQQKPGKAPKLLIYWASARHTGVPSRFSGSGSGTDFTLTISSLQPEDFATYYCQQHYKTPFTFGQGTKLEIKRTVAAPDIQMTQSPSSLSASVGDRVTITCRASEDIYNALAWYQQKPGKAPKLLIYNTDTLHTGVPSRFSGSGSGTDYTLTISSLQPEDFATYFCQHYFHYPRTFGQGTKVEIKR
B10: DVD2767 (bispecific antibody, IgG1)
VH: B9 VH with T35E, M50G, S61D, S62T, G65S
VL: B9 VL with R24K, A53T, R54L, K93R
B11: DVD2716 (bispecific antibody, IgG1)
VH: EVQLVESGGGLVQPGGSLRLSCAASGFTFSNYGVTWVRQAPGKGLEWVSMIWADGSTHYASSVKGRFTISRDNSKNTLYLQMNSLRAEDTAVYYCAREWQHGPVAYWGQGTLVTVSSASTKGPEVQLVESGGGLVQPGGSLRLSCAASGFSLTNNNVNWVRQAPGKGLEWVGGVWAGGATDYNSALKSRFTISRDNSKNTAYLQMNSLRAEDTAVYYCARDGGYSSSTLYAMDAWGQGTLVTVSS
VL: DIQMTQSPSSLSASVGDRVTITCRASQLVSSAVAWYQQKPGKAPKLLIYWASARHTGVPSRFSGSGSGTDFTLTISSLQPEDFATYYCQQHYKTPFTFGQGTKLEIKRTVAAPSVFIFPPDIQMTQSPSSLSASVGDRVTITCRASEDIYNALAWYQQKPGKAPKLLIYNTDTLHTGVPSRFSGSGSGTDYTLTISSLQPEDFATYFCQHYFHYPRTFGQGTKVEIKR
B12: DVD2764 (bispecific antibody, IgG1)
VH: B11 VH with T35E, M50G, S61D, S62T, G65S
VL: B9 VL with R24K, A53T, R54L, K93R

The binders below were run against Recombinant Human TNF-α/TNFSF1A (human, UniProt P01375 77-233) (assay: cell-based or functional assay).
Recombinant Human TNF-α/TNFSF1A, sequence (P01375 77-233 limits assumed): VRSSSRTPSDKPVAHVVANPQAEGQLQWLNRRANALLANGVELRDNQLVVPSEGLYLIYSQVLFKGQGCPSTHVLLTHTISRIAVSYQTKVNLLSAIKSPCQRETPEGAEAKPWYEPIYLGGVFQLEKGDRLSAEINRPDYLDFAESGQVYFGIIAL

Row | Binder | C-Terminal VD huTNFα Neutralization Assay IC50 [nM] | N-Terminal VD huTNFα Neutralization Assay IC50 [nM]
1 | B1 | 0.126 | 
2 | B2 | 0.19 | 
3 | B3 | 0.222 | 
4 | B4 | 0.029 | 
5 | B5 | 0.06 | 
6 | B6 | 0.249 | 
7 | B7 | 0.189 | 
8 | B8 |  | 0.004
9 | B9 |  | 0.278
10 | B10 |  | 0.01
11 | B11 |  | 0.014
12 | B12 |  | 0.012

Each binder was assayed against Recombinant Human β-NGF (human, UniProt P01138 122-241) (assay: cell-based or functional assay).
Recombinant Human β-NGF, sequence (P01138 122-241 limits assumed): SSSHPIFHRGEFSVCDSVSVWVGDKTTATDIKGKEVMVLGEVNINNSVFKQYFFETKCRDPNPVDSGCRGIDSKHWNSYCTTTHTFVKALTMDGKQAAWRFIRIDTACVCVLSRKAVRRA

Row | Binder | N-Terminal VD NGF Neutralization Assay IC50 [nM] | C-Terminal VD NGF Neutralization Assay IC50 [nM]
13 | B1 | 0.019 | 
14 | B2 | 0.053 | 
15 | B3 | 0.001 | 
16 | B4 | 0.041 | 
17 | B5 | 0.037 | 
18 | B6 | 0.008 | 
19 | B7 | 0.003 | 
20 | B8 |  | 0.871
21 | B9 |  | 0.936
22 | B10 |  | 0.646
23 | B11 |  | 0.624
24 | B12 |  | 4.1
